This data set deals with the molecule itself. The data set can be described thus: thin section electron microscopy.

B1: FtsZ-mVenus (FtsZ with the YFP variant mVenus fused to the C terminus) (natural protein, E. coli, UniProt P0A9A6 1-383, looked up)
chain: MFEPMELTNDAVIKVIGVGGGGGNAVEHMVRERIEGVEFFAVNTDAQALRKTAVGQTIQIGSGITKGLGAGANPEVGRNAADEDRDALRAALEGADMVFIAAGMGGGTGTGAAPVVAEVAKDLGILTVAVVTKPFNFEGKKRMAFAEQGITELSKHVDSLITIPNDKLLKVLGRGISLLDAFGAANDVLKGAVQGIAELITRPGLMNVDFADVRTVMSEMGYAMMGSGVASGEDRAEEAAEMAISSPLLEDIDLSGARGVLVNITAGFDLRLDEFETVGNTIRAFASDNATVVIGTSLDPDMNDELRVTVVATGIGMDKRPEITLVTNKQVQQPVMDRYQQHGMAPLTQEQKPVAKVVNDNAPQTAKEPDYLDIPAFLRKQAD
With B1, the binding result is listed as “binds”.
